In article PMC9481538, “The interaction between LC8 and LCA5 reveals a novel oligomerization function of LC8 in the ciliary-centrosome system” (Scientific Reports, 2022):
Where a chain is given by its changes, count along the chain named. Where no end group is shown, it is not given here. The star is where a group is joined. FITC = O=C1OC2(c3ccc(O)cc3Oc3cc(O)ccc32)c2ccc(NC(=S)*)cc21

B1: sLCA5-ΔVQT (domain or fragment, human (cDNA library from HEK293), UniProt Q86VQ0 96-430, looked up)
chain: DTDLVTKRILSARLLKINELQNEVSELQVKLAELLKENKSLKRLQYRQEKALNKFEDAENEISQLIFRHNNEITALKERLRKSQEKERATEKRVKDTESELFRTKFSLQKLKEISEARHLPERDDLAKKLVSAELKLDDTERRIKELSKNLELSTNSFQRQLLAERKRAYEAHDENKVLQKEVQRLYHKLKEKERELDIKNIYSNRLPKSSPNKEKELALRKNAACQSDFADLCTKGAAAMEDFKPEEYPLTPETIMCYENKWEEPGHLTLDLQSQKQDRHGEAGILNPIMEREEKFVTDEELHVVKQEVEKLEDEWEREELDKKQKEKASLLER
notes: position 333 worked out from the printed motif limits; Made by quick-change mutagenesis from sLCA5-WT; also called ΔVQT mutant; source: E. coli BL21 (DE3) Rosetta, purified (amylose resin, IMAC); clarified lysate for the pull-down; not shown: MBP, N-terminal, kept; His6, C-terminal, kept
B2: sLCA5-WT (LCA5 96-430 with N-terminal MBP and C-terminal 6xHis) (domain or fragment, human (cDNA library from HEK293), UniProt Q86VQ0 96-430, looked up)
chain: B1 chain with A238V, A239Q, A240T
notes: Monomer of the construct 84 kDa; also called wild-type LCA5 fragment; source: E. coli BL21 (DE3) Rosetta, purified (amylose resin, IMAC); clarified lysate for the pull-down; not shown: MBP, N-terminal, kept; His6, C-terminal, kept
B3: FITC-labelled BMF (Bcl-2-modifying factor) peptide (TSQEDKATQTL) (peptide)
peptide: {FITC}-TSQEDKATQTL
notes: also called BMF peptide; fluorescein labeled BMF peptide
B4: sLCA5-ΔCQS (domain or fragment, human (cDNA library from HEK293), UniProt Q86VQ0 96-430, looked up)
chain: B1 chain with C226A, Q227A, S228A, A238V, A239Q, A240T
notes: position 321 worked out from the printed motif limits; Made by quick-change mutagenesis from sLCA5-WT; also called ΔCQS mutant; source: E. coli BL21 (DE3) Rosetta, purified (amylose resin, IMAC); clarified lysate for the pull-down; not shown: MBP, N-terminal, kept; His6, C-terminal, kept

What was measured:
[1] = molecular target: T1, Dynein light chain LC8 (DYNLL2), 6xHis-tagged (UniProt Q96FJ2 1-89); assay: ITC; MBP-fused LCA5 construct in the cell, LC8 injected, 37 injections of 1 μl; 37 °C, PBS pH 7.4, 1 mM TCEP; conditions: both partners purified
T1 construct: Dynein light chain LC8 (DYNLL2), an 89-residue protein; pEV vector with N-terminal 6xHis-tag; The calculated dimer mass of 20.7 kDa fits the untagged protein, so the His tag may have been removed; source: E. coli BL21 (DE3) Rosetta, purified (Ni IMAC, anion exchange on HiTrap Q-HP, SEC on Superdex 75)

[2] = molecular target: the molecule itself; assay: SEC; Superose 6 Increase 10/300, DPBS with 200 μM TCEP; LC8 or sLCA5-WT alone; masses estimated from a calibration curve
[3] = molecular target: T1, Dynein light chain LC8 (DYNLL2), …; assay: fluorescence polarisation; competitive: 50 nM FITC-BMF peptide with LC8 at 80% saturation (12 μM), titrated with LCA5 peptide from 500 μM in two-fold dilutions; 25 °C, PBS, 2 mM TCEP, 0.05% Brij; triplicates; conditions: both partners purified

T1 sequence (Q96FJ2 whole entry, looked up, the tested form may be a part): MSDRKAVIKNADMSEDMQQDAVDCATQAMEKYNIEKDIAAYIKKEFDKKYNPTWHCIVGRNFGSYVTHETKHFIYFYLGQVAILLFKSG

Row | Binder | Kd [1] [µM] | stoichiometry N [2] | binding result [3]
1 | B1 | 1.22 ± 0.08 |  | 
2 | B2 | 0.76 ± 0.06 | ~4 | 
3 | B3 |  |  | binds
4 | B4 | 0.68 ± 0.08 |  | 
